Paper PMC3040440 (Journal of immunology (Baltimore, Md. : 1950), 2010)

B1: TNF receptor associated factor 3 (TRAF3) (natural protein, mouse (endogenous in CH12.LX), UniProt Q60803 1-567, looked up)
chain: MESSKKMDAAGTLQPNPPLKLQPDRGAGSVLVPEQGGYKEKFVKTVEDKYKCEKCRLVLCNPKQTECGHRFCESCMAALLSSSSPKCTACQESIIKDKVFKDNCCKREILALQVYCRNEGRGCAEQLTLGHLLVHLKNECQFEELPCLRADCKEKVLRKDLRDHVEKACKYREATCSHCKSQVPMIKLQKHEDTDCPCVVVSCPHKCSVQTLLRSELSAHLSECVNAPSTCSFKRYGCVFQGTNQQIKAHEASSAVQHVNLLKEWSNSLEKKVSLLQNESVEKNKSIQSLHNQICSFEIEIERQKEMLRNNESKILHLQRVIDSQAEKLKELDKEIRPFRQNWEEADSMKSSVESLQNRVTELESVDKSAGQAARNTGLLESQLSRHDQMLSVHDIRLADMDLRFQVLETASYNGVLIWKIRDYKRRKQEAVMGKTLSLYSQPFYTGYFGYKMCARVYLNGDGMGKGTHLSLFFVIMRGEYDALLPWPFKQKVTLMLMDQGSSRRHLGDAFKPDPNSSSFKKPTGEMNIASGCPVFVAQTVLENGTYIKDDTIFIKVIVDTSDLPDP
B2: TNF receptor associated factor 5 (TRAF5) (natural protein, mouse (endogenous in CH12.LX), UniProt P70191 1-558, looked up)
chain: MAHSEEQAAVPCAFIRQNSGNSISLDFEPDTEYQFVEQLEERYKCAFCHSVLHNPHQTGCGHRFCQQCIRSLRELNSVPICPVDKEVIKPQEVFKDNCCKREVLNLHVYCKNAPGCNARIILGRFQDHLQHCSFQAVPCPNESCREAMLRKDVKEHLSAYCRFREEKCLYCKRDIVVTNLQDHEENSCPAYPVSCPNRCVQTIPRARVNEHLTVCPEAEQDCPFKHYGCTVKGKRGNLLEHERAALQDHMLLVLEKNYQLEQRISDLYQSLEQKESKIQQLAETVKKFEKELKQFTQMFGRNGTFLSNVQALTSHTDKSAWLEAQVRQLLQIVNQQPSRLDLRSLVDAVDSVKQRITQLEASDQRLVLLEGETSKHDAHINIHKAQLNKNEERFKQLEGACYSGKLIWKVTDYRVKKREAVEGHTVSVFSQPFYTSRCGYRLCARAYLNGDGSGKGTHLSLYFVVMRGEFDSLLQWPFRQRVTLMLLDQSGKKNHIVETFKADPNSSSFKRPDGEMNIASGCPRFVSHSTLENSKNTYIKDDTLFLKVAVDLTDLEDL

Target: hCD40-P227A, gain-of-function polymorphism of the human CD40 receptor (human, UniProt P25942 21-277, P227A)
Test: co-IP

hCD40-P227A, gain-of-function polymorphism of the human CD40 receptor, sequence (P25942 21-277 P227A): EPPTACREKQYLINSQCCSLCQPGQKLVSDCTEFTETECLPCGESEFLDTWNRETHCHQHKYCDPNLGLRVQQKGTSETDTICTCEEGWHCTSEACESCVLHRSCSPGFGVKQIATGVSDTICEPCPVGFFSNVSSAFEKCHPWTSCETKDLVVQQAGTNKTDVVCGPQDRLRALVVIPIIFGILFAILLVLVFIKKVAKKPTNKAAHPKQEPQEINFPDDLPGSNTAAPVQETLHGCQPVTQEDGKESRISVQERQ

| Binder | fold bound relative to Wt-hCD40 [fold] |
| --- | --- |
| B1 | 2 |
| B2 | 2 |
